# Positions count from the first letter of the chain named. Ends that are not written are not given here.
# T1: Rps3 (endogenous, nascent) (S. cerevisiae (endogenous in yeast cells)) (UniProt P05750)
# T1 sequence: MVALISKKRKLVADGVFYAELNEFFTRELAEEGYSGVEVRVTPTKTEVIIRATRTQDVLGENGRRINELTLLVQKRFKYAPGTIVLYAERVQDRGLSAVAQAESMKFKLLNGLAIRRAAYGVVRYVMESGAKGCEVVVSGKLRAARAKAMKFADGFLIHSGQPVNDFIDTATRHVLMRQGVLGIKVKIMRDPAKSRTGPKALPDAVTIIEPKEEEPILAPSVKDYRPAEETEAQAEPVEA
# T2: Rpl5 (endogenous, nascent) (S. cerevisiae (endogenous in yeast cells)) (UniProt P26321)
# T2 sequence: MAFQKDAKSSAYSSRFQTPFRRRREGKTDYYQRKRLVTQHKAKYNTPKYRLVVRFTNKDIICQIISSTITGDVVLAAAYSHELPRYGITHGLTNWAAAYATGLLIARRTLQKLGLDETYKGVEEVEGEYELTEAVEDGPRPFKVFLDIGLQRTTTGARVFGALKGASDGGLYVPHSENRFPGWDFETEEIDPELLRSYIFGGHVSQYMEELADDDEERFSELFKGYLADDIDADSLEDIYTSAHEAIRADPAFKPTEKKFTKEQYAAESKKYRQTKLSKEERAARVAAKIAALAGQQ
# T3: Rpl10 (endogenous) (S. cerevisiae (endogenous in yeast …, UniProt P41805 1-221))
# T3 sequence (looked up): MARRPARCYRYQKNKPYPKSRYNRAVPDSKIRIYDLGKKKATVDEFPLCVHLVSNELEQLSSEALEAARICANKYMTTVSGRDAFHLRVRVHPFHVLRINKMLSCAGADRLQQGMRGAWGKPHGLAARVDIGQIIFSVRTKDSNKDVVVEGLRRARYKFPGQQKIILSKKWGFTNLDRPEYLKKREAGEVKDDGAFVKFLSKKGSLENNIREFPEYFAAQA
# B1: Yar1-TAP (natural protein)
# chain: MGLHSEPLDQEDQDTIILDARAGDLDSLKDIFTTLVSPELLSTCKESESDSTALHMAAANGHIETVRYILETVSRANSAEDLKAFVNEVNKTGNTALHWASLNGKLDVVKLLCDEYEADPFIRNKFGHDAIFEAENSGKEEVETYFLKKYDVEPEDDEEDTQTEGKNSVQITKGTEIEQVTKEATEALREETEKLNINKD
# B2: Sqt1 (53C construct): WD-repeat β-propeller domain of Sqt1; deletion of amino acids 1–52 (protein)
# chain: MSNNSLTYFDKHTDSVFAIGHHPNLPLVCTGGGDNLAHLWTSHSQPPKFAGTLTGYGESVISCSFTSEGGFLVTADMSGKVLVHMGQKGGAQWKLASQMQEVEEIVWLKTHPTIARTFAFGATDGSVWCYQINEQDGSLEQLMSGFVHQQDCSMGEFINTDKGENTLELVTCSLDSTIVAWNCFTGQQLFKITQAEIKGLEAPWISLSLAPETLTKGNSGVVACGSNNGLLAVINCNNGGAILHLSTVIELKPEQDELDASIESISWSSKFSLMAIGLVCGEILLYDTSAWRVRHKFVLEDSVTKLMFDNDDLFASCINGKVYQFNARTGQEKFVCVGHNMGVLDFILLHPVANTGTEQKRKVITAGDEGVSLVFEVPN
# B3: Syo1-FTpA (natural protein)
# chain: MGRSKKRSRASSSRLNPLRKAGSNDNNKDTNVVNKKLQPLLQNLSSVVPNDRSIALSSISVLCEDAHMRQLLLKEKLVPIILNKLLNDSNSDIVVESFGLLRNLSLEEGYDVSIYLWRSDIWTSITSNFGRIVESLSALQAAEQQPQLKPAGKSKIESKRLLFDFADNLLSLVVALSNGSDDILNEILTESKINEIFQVISQLLKYGVEKLPINLFNTTLDLIYDLSSESFEFIDHVSNNELLSQFLNGLSPALHPQANELTKVLIEGIHCQFLDMKITYDQCNKMIHSVCHSINNIDPVQLVNDINNPVEIGPATSKDESSKVITKIKDYNAKRNESMIKLQSIEIAIDLITAIIEIVASKYESPESQEVAIPEELINTLTNFLPHVFMILKDTFTSRILIGWNNLIWLFVSLSLTELSGELLTTLWSYVTQLDSQDDLSIKIGRMGCIWALLKLIFPDGAFESENRALINVQMLNNSGFARGIIEEFQNNNDLELQQKCINVLSTYAMIQGQIDANKEIGQFFIQTLTQLNVRPEILIEMTNSLFQIYGDASYDYNEPIFVRGGFLSILKDQVVPNLRQQFKMVDKNKNPELKERCHDCFTTLDSFIHYKMNENSTNQ
# B4: NTAP-Rrb1 (natural protein, S. cerevisiae, UniProt Q04225 1-511, looked up)
# chain: MSKRSIEVNEEQDRVVSAKTESHSVPAIPASEEQDAPKNDLEEQLSDEFDSDGEIIEIDGDDEINDEDDLRKKQEEAETLVQKDQSEGNKEKIQELYLPHMSRPLGPDEVLEADPTVYEMLHNVNMPWPCLTLDVIPDTLGSERRNYPQSILLTTATQSSRKKENELMVLALSNLAKTLLKDDNEGEDDEEDDEDDVDPVIENENIPLRDTTNRLKVSPFAISNQEVLTATMSENGDVYIYNLAPQSKAFSTPGYQIPKSAKRPIHTVKNHGNVEGYGLDWSPLIKTGALLSGDCSGQIYFTQRHTSRWVTDKQPFTVSNNKSIEDIQWSRTESTVFATAGCDGYIRIWDTRSKKHKPAISVKASNTDVNVISWSDKIGYLLASGDDNGTWGVWDLRQFTPSNADAVQPVAQYDFHKGAITSIAFNPLDESIVAVGSEDNTVTLWDLSVEADDEEIKQQAAETKELQEIPPQLLFVHWQKEVKDVKWHKQIPGCLVSTGTDGLNVWKTISV
# B5: full-length Rpl10: full-length ribosomal protein Rpl10 (protein)
# chain: T3 sequence (looked up)
# modifications: left off: Gal4 DNA-binding domain or Gal4 activation domain (which of the two is not stated), end not stated, kept
# B6: Sqt1-TAP (natural protein, S. cerevisiae, UniProt P35184 1-431, looked up)
# chain: MEPQEEFITTEEVEQEIVPTVEVEQDVPVDIEGENDDDDEMMNDDEEALEVDMSNNSLTYFDKHTDSVFAIGHHPNLPLVCTGGGDNLAHLWTSHSQPPKFAGTLTGYGESVISCSFTSEGGFLVTADMSGKVLVHMGQKGGAQWKLASQMQEVEEIVWLKTHPTIARTFAFGATDGSVWCYQINEQDGSLEQLMSGFVHQQDCSMGEFINTDKGENTLELVTCSLDSTIVAWNCFTGQQLFKITQAEIKGLEAPWISLSLAPETLTKGNSGVVACGSNNGLLAVINCNNGGAILHLSTVIELKPEQDELDASIESISWSSKFSLMAIGLVCGEILLYDTSAWRVRHKFVLEDSVTKLMFDNDDLFASCINGKVYQFNARTGQEKFVCVGHNMGVLDFILLHPVANTGTEQKRKVITAGDEGVSLVFEVPN
# B7: Sqt1 Glu315 to lysine: Sqt1 variant, Glu315 mutated to lysine (protein, UniProt P35184 1-431, looked up, variant E315K)
# Ribosome assembly protein SQT1: B6 chain with E315K
# Experiments:
# Rrb1 = test: Y2H interaction with Rrb1; type: binding, S. cerevisiae; conditions: reporter strain PJ69-4A, HIS3 and ADE2 reporters, 3 days at 30 °C
# Procedure: (§1) For Y2H interaction assays, plasmids expressing bait proteins, fused to the Gal4 DNA-binding domain (G4BD), and prey proteins, fused to the Gal4 activation domain (G4AD), were co-transformed into reporter strain PJ69-4A. Y2H interactions were documented by spotting representative transformants in 10-fold serial dilution steps onto SC-Trp-Leu, SC-Trp-Leu-His (HIS3 reporter) and SC-Trp-Leu-Ade (ADE2 reporter) plates, which were incubated for 3 days at 30 °C. Growth on SC-Trp-Leu-His plates is indicative of a weak/moderate interaction, whereas only relatively strong interactions permit growth on SC-Trp-Leu-Ade plates.
# [1] = biological target: CtSqt1.52C (WD-repeat β-propeller domain of ctSqt1); test: isothermal titration calorimetry (ITC), C. thermophilum; type: binding, Chaetomium thermophilum
# Procedure: ITC experiments were performed on a MicroCal ITC 2000 instrument (GE Healthcare). The following peptides, corresponding to the N-terminal 19 (without N-terminal methionine) or 20 amino acids of S. cerevisiae and C. thermophilum Rpl10, were synthesized with a free acid group at the C terminus (peptides&elephants): Rpl10(1–20) NH2-[…]-COOH, Rpl10(2–20) NH2-[…]-COOH, ctRpl10(1–20) NH2-[…]-COOH and ctRpl10(2–20) NH2-[…]-COOH. Peptides (1 mg each) were dissolved in the appropriate volume of gel-filtration buffer (20 mM HEPES–NaOH (pH 7.5), 200 mM NaCl, 20 mM KCl and 20 mM MgCl2), which was used for the purification of ScSqt1.53C and ctSqt1.52C, to obtain 1 mM stock solutions. Concentrations of proteins were determined by measuring the A280 using a NanoDrop Lite spectrophotometer (Thermo Scientific). For determination of the C. thermophilum Sqt1/L10-N binding, 200 μl of ctSqt1.52C (10 μM) was added to the sample cell and 2 μl of 100 μM solutions of the peptides was titrated in at 25 °C. For determination of the S. cerevisiae Sqt1/L10-N binding, 200 μl of ScSqt1.53C (100 μM) was added to the sample cell and 2 μl of 1 mM solutions of the peptides were titrated in at 15 °C. ITC data were processed using the Origin ITC Software (OriginLab) and thermodynamic parameters were obtained by fitting the data to a One Set of Sites binding model.
# [2] = biological target: T1, Rps3 (endogenous, nascent) (S. cerevisiae (endogenous in yeast cells))
# Rpl10 = test: Y2H interaction with Rpl10; type: binding, S. cerevisiae; conditions: Sqt1 variants; PJ69-4A, HIS3 and ADE2 reporters, 3 days at 30 °C
# Procedure: as §1
# [3] = biological target: T2, Rpl5 (endogenous, nascent) (S. cerevisiae (endogenous in yeast cells))
# Rpl3 (endogenous) = Rpl3 (endogenous) (S. cerevisiae (endogenous in yeast …, UniProt P14126 1-387)); test: cell-based or functional assay
# [4] = soluble expression in E. coli; type: physicochemical; conditions: data not shown for Rpl10
# Rpl10 (endogenous) = biological target: T3, Rpl10 (endogenous); test: cell-based or functional assay
# Sequence of Rpl3 (endogenous) (S. cerevisiae (P14126 whole entry): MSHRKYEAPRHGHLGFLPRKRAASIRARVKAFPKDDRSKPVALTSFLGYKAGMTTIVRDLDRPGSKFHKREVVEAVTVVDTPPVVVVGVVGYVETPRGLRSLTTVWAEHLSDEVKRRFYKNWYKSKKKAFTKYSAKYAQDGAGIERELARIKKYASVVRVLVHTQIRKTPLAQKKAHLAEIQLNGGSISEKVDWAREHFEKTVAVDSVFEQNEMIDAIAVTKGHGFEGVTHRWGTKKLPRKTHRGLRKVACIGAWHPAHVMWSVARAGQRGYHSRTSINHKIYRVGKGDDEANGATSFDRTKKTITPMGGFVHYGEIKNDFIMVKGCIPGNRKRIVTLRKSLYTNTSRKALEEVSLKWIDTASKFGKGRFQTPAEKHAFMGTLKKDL
molecule,measurement,setting,value
"amino acids 1–15 of Rpl3: amino acids 1–15 of Rpl3, Y2H bait fused to G4BD (MSHRKYEAPRHGHLG; also: fused to Gal4 DNA-binding domain; UniProt P14126 1-15, looked up, fragment)",Y2H interaction with Rrb1,Rrb1,sufficient to yield a robust Y2H interaction with full-length Rrb1
"H-MARRPARCYRYCKNKPYPKS-OH (cysteine pairing not given here) [CtL10-N(1-20), N-terminal 20 amino acids of C. thermophilum Rpl10]",Kd,"[1]; 10 μM ctSqt1.52C in cell, 2 μl of 100 μM peptide titrated, 25 °C, 20 mM HEPES–NaOH (pH 7.5), 200 mM NaCl, 20 mM KCl, 20 mM MgCl2, One Set of Sites, read-out: dissociation constant (Kd)",~442 nM
same,effect of Met1 on the interaction,[1]; ctSqt1,did not abolish the interaction completely
B1,"enrichment of the RPS3 mRNA in the Yar1-TAP purification (IgG-sepharose pull-down from cycloheximide-treated cells, TEV eluate, real-time qRT–PCR)",[2],100 fold
B2,Y2H interaction with Rpl10,Rpl10,sufficient to mediate the interaction both with full-length or the N-terminal residues
B3,"enrichment of the RPL5 mRNA in the Syo1-FTpA purification (IgG-sepharose pull-down from cycloheximide-treated cells, TEV eluate, real-time qRT–PCR)",[3],100 fold
B4,"enrichment of the RPL3 mRNA in the NTAP-Rrb1 purification (IgG-sepharose pull-down from cycloheximide-treated cells, TEV eluate, real-time qRT–PCR)",Rpl3 (endogenous),~100 fold
B5,soluble expression in E. coli,[4],expressed as an insoluble protein
B6,"enrichment of the RPL10 mRNA in the Sqt1-TAP purification (IgG-sepharose pull-down from cycloheximide-treated cells, TEV eluate, real-time qRT–PCR)",Rpl10 (endogenous),~25 fold
B7,Y2H interaction with Rpl10,Rpl10,abolished the interaction between Sqt1 and Rpl10
